Here are results for ten molecules from EP1906184A1 (KYOWA HAKKO KOGYO CO., LTD., dated 2008).

Experiment [1] has as its target T1, soluble human VEGF receptor KDR 7N (human, UniProt P35968 20-757).
T1 construct: range 1-738; The range 1-738 counts on the mature protein, not on the precursor; Expressed in High Five insect cells (purity 70 to 80%); not shown: two amino acid residues derived from a linker
As to the kind of experiment: ELISA, receptor coated at 4 µg/ml, antibody concentration varied. (In general: In an ELISA, binding on a coated surface is turned into a signal by an enzyme label.)

Experiment [2] addresses T1, soluble human VEGF receptor KDR 7N. As to the kind of experiment: ELISA, receptor coated at 4 µg/ml.
For experiment [3] the target is unchanged. As to the kind of experiment: ELISA, receptor coated at 10 µg/ml (3-fold dilutions).

T1 sequence (P35968 20-757): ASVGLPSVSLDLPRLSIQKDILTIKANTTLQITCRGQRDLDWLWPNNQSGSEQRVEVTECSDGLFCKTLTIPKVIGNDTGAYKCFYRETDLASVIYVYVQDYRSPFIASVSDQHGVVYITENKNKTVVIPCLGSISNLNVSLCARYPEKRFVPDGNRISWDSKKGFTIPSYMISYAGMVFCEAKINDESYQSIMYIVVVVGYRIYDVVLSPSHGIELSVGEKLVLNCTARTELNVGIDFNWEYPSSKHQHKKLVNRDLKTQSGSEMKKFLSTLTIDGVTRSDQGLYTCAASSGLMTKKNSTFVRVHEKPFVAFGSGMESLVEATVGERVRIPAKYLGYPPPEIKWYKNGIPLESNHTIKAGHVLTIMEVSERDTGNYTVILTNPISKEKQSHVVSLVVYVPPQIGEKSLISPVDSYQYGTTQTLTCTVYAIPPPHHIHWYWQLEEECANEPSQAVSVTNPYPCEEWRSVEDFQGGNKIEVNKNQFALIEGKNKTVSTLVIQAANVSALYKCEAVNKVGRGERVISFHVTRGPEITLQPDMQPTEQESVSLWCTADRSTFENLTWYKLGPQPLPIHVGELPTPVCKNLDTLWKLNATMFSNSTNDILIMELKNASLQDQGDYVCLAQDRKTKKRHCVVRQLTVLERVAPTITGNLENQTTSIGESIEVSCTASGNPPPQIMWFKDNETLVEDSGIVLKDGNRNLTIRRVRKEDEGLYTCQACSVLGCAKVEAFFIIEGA

B1: anti-human VEGF receptor Flt-1 human chimeric antibody KM2550 (antibody, V domains shown)
VH: QAFLQQSGAELVRPGASVKMSCKASGYTFINYNMHWVKQTPRQGLEWIGAIFPGNGFTSYNQKFKGKATLTVDKSSSTVYMQLRSLTSEDSAVYFCARDGDYYFDYWGQGTTLTVSS
VL: QIVLTQSPAIMSASLGEEITLTCSASSSVSYMHWYQQKSGTSPKLLIYRTSNLASGVPFRFSGSGSGTFYSLTISSVEAEDAADYYCHQWSMYTFGGGTKLEIK
As to B1, the binding result in experiment [1] is reported as “no binding (tested: 0.0152 to 100 ng/ml)”.

B2: anti-human VEGF receptor Flt-1 mouse monoclonal antibody KM1750 (antibody, V domains shown)
VH: QAFLQQSGAELVRPGASVKMSCKASGYTFINYNMHWVKQTPRQGLEWIGAIFPGNGFTSYNQKFKGKATLTVDKSSSTVYMQLRSLTSEDSAVYFCARDGDYYFDYWGQGTTLTVSS
VL: QIVLTQSPAIMSASLGEEITLTCSASSSVSYMHWYQQKSGTSPKLLIYRTSNLASGVPFRFSGSGSGTFYSLTISSVEAEDAADYYCHQWSMYTFGGGTKLEIK
notes: Mouse IgG2b from hybridoma KM1750 (FERM BP-5700)
B2: in experiment [2], the binding result is on record as “no binding (tested: 0.1 µg/ml)”.

B3: anti-human VEGF receptor Flt-1 human CDR-grafted antibody KM8550 (antibody, V domains shown)
VH: QVQLVQSGAEVKKPGASVKVSCKASGYTFINYNMHWVRQAPGQGLEWMGAIFPGNGFTSYNQKFKGRVTITVDKSTSTAYMELSSLRSEDTAVYYCARDGDYYFDYWGQGTLVTVSS
VL: DIQMTQSPSSLSASVGDRVTITCSASSSVSYMHWYQQKPGKAPKLLIYRTSNLASGVPSRFSGSGSGTDFTLTISSLQPEDFATYYCHQWSMYTFGQGTKVEIK
notes: Human CDR-grafted IgG; also called 1750HV0 + 1750LV0(I); pKANTEX1750HV0LV0(I)
B3: in experiment [3], the binding result is “no binding (tested: 5 µg/ml)”.

B4: anti-human VEGF receptor Flt-1 human CDR-grafted antibody KM8551 (antibody, V domains shown)
VH: QVQLVQSGAEVKKPGASVKVSCKASGYTFINYNMHWVRQAPGQGLEWMGAIFPGNGFTSYNQKFKGRVTITVDKSTSTAYMELSSLRSEDTAVYYCARDGDYYFDYWGQGTLVTVSS
VL: DIVMTQSPDSLAVSLGERATINCSASSSVSYMHWYQQKPGQPPKLLIYRTSNLASGVPDRFSGSGSGTDFTLTISSLQAEDVAVYYCHQWSMYTFGQGTKVEIK
notes: Human CDR-grafted IgG; also called 1750HV0 + 1750LV0(IV); pKANTEX1750HV0LV0(IV)
Regarding B4, the binding result in experiment [3] is “no binding (tested: 5 µg/ml)”.

B5: anti-human VEGF receptor Flt-1 human CDR-grafted antibody KM8552 (antibody, V domains shown)
VH: QVQLVQSGAEVKKPGASVKVSCKASGYTFINYNMHWVRQAPGQGLEWMGAIFPGNGFTSYNQKFKGRVTITVDKSTSTAYMQLRSLRSEDTAVYFCARDGDYYFDYWGQGTLVTVSS
VL: DIQMTQSPSSLSASVGDRVTITCSASSSVSYMHWYQQKPGKAPKLLIYRTSNLASGVPSRFSGSGSGTDFTLTISSLQPEDFATYYCHQWSMYTFGQGTKVEIK
notes: Human CDR-grafted IgG with modified FR in VH; also called 1750HV3 + 1750LV0(I); pKANTEX1750HV3LV0(I)
Turning to B5, in experiment [3], the binding result is given as “no binding (tested: 5 µg/ml)”.

B6: anti-human VEGF receptor Flt-1 human CDR-grafted antibody KM8553 (antibody, V domains shown)
VH: QVQLVQSGAEVKKPGASVKVSCKASGYTFINYNMHWVRQAPGQGLEWMGAIFPGNGFTSYNQKFKGRVTITVDKSTSTAYMQLRSLRSEDTAVYFCARDGDYYFDYWGQGTLVTVSS
VL: DIVMTQSPDSLAVSLGERATINCSASSSVSYMHWYQQKPGQPPKLLIYRTSNLASGVPDRFSGSGSGTDFTLTISSLQAEDVAVYYCHQWSMYTFGQGTKVEIK
notes: Human CDR-grafted IgG with modified FR in VH; also called 1750HV3 + 1750LV0(IV); pKANTEX1750HV3LV0(IV)
Take B6: the binding result in experiment [3] is given as “no binding (tested: 5 µg/ml)”.

B7: anti-human VEGF receptor Flt-1 human CDR-grafted antibody KM8555 (antibody, V domains shown)
VH: QVQLVQSGAEVKKPGASVKVSCKASGYTFINYNMHWVRQAPGQGLEWMGAIFPGNGFTSYNQKFKGRVTITVDKSTSTAYMQLRSLRSEDTAVYFCARDGDYYFDYWGQGTLVTVSS
VL: DIQMTQSPSSLSASVGEEVTITCSASSSVSYMHWYQQKPGKAPKLLIYRTSNLASGVPSRFSGSGSGTFYTLTISSLQPEDFATYYCHQWSMYTFGQGTKVEIK
notes: Human CDR-grafted IgG with modified FR in VH and VL; also called 1750HV3 + 1750LV4; pKANTEX1750HV3LV4
Consider B7, for which the binding result in experiment [3] was “no binding (tested: 5 µg/ml)”.

B8: anti-human VEGF receptor Flt-1 human CDR-grafted antibody KM8554 (antibody, V domains shown)
VH: QVQLVQSGAEVKKPGASVKVSCKASGYTFINYNMHWVRQAPGQGLEWMGAIFPGNGFTSYNQKFKGRVTITVDKSTSTAYMELSSLRSEDTAVYYCARDGDYYFDYWGQGTLVTVSS
VL: DIQMTQSPSSLSASVGEEVTITCSASSSVSYMHWYQQKPGKAPKLLIYRTSNLASGVPSRFSGSGSGTFYTLTISSLQPEDFATYYCHQWSMYTFGQGTKVEIK
notes: Human CDR-grafted IgG with modified FR in VL; also called 1750HV0 + 1750LV4; pKANTEX1750HV0LV4
Turning to B8, in experiment [3], the binding result is “no binding (tested: 5 µg/ml)”.

B9: anti-human VEGF receptor Flt-1 human chimeric antibody KM2532 (antibody, V domains shown)
VH: QGQMQQSGAELVKPGASVKLSCKPSGFTFSSNYISWLKQKPGQSLEWIAWIYAGTGDASYNQKFTAKAHVTVDTSSSTAYMQLSSLTTEDSAIYYCARHGGDGYWFAYWGQGTLVTVSA
VL: QLVLTQSPAIMSASQGEKVTMTCSASSSVSYMHWYQQKSGTSPKRWIYDTSKLPSGVPARFSGSGSGTSYSLTISSMEAEDAATYYCQQWSSNPPTFGAGTKLELK
Consider B9, for which the binding result in experiment [1] is “no binding (tested: 0.0152 to 100 ng/ml)”.

B10: anti-human VEGF receptor Flt-1 mouse monoclonal antibody KM1732 (antibody, V domains shown)
VH: QGQMQQSGAELVKPGASVKLSCKPSGFTFSSNYISWLKQKPGQSLEWIAWIYAGTGDASYNQKFTAKAHVTVDTSSSTAYMQLSSLTTEDSAIYYCARHGGDGYWFAYWGQGTLVTVSA
VL: QLVLTQSPAIMSASQGEKVTMTCSASSSVSYMHWYQQKSGTSPKRWIYDTSKLPSGVPARFSGSGSGTSYSLTISSMEAEDAATYYCQQWSSNPPTFGAGTKLELK
notes: Mouse IgG1 from hybridoma KM1732 (FERM BP-5698); also called anti-human Flt-1 monoclonal antibody KM1732
B10: in experiment [2], the binding result was “no binding (tested: 0.1 µg/ml)”.
